Data on 3 molecules can be found in paper PMC4941815 (Molecular cell, 2016).

The chains are these.
B2: full-length His-tagged CLK1 (enzyme)
chain: not shown
B3: kdSRPK1, kinase inactive SRPK1 containing K109M (enzyme, UniProt Q96SB4 1-655, looked up)
chain: MERKVLALQARKKRTKAKKDKAQRKSETQHRGSAPHSESDLPEQEEEILGSDDDEQEDPNDYCKGGYHLVKIGDLFNGRYHVIRKLGWGHFSTVWLSWDIQGKKFVAMMVVKSAEHYTETALDEIRLLKSVRNSDPNDPNREMVVQLLDDFKISGVNGTHICMVFEVLGHHLLKWIIKSNYQGLPLPCVKKIIQQVLQGLDYLHTKCRIIHTDIKPENILLSVNEQYIRRLAAEATEWQRSGAPPPSGSAVSTAPQPKPADKMSKNKKKKLKKKQKRQAELLEKRMQEIEEMEKESGPGQKRPNKQEESESPVERPLKENPPNKMTQEKLEESSTIGQDQTLMERDTEGGAAEINCNGVIEVINYTQNSNNETLRHKEDLHNANDCDVQNLNQESSFLSSQNGDSSTSQETDSCTPITSEVSDTMVCQSSSTVGQSFSEQHISQLQESIRAEIPCEDEQEQEHNGPLDNKGKSTAGNFLVNPLEPKNAEKLKVKIADLGNACWVHKHFTEDIQTRQYRSLEVLIGSGYNTPADIWSTACMAFELATGDYLFEPHSGEEYTRDEDHIALIIELLGKVPRKLIVAGKYSKEFFTKKGDLKHITKLKPWGLFEVLVEKYEWSQEEAAGFTDFLLPMLELIPEKRATAAECLRHPWLNS

Read-outs that look alike come from different tables or passages of the source.

The target in assay [1] is T1, His-tagged SRPK1 (UniProt Q96SB4 1-655). Nature of the assay: pull-down.
In assay [2] the target is T1, His-tagged SRPK1. Nature of the assay: pull-down. This is another data set of the same source.
Assay [3] concerns the target B3. Nature of the assay: displacement of 32P-phospho-GST-SRSF1 from His-CLK1 on Ni-resin.
The target of assay [4] is B2. Described as above.

B1: GST-tagged form of the CLK1 N-terminus (domain or fragment, UniProt P49759 1-160, looked up)
chain: MRHSKRTYCPDWDDKDWDYGKWRSSSSHKRRKRSHSSAQENKRCKYNHSKMCDSHYLESRSINEKDYHSRRYIDEYRNDYTQGCEPGHRQRDHESRYQNHSSKSSGRSGRSSYKSKHRIHHSTSHRRSHGKSHRRKRTRSVEDDEEGHLICQSGDVLSAR
As to B1, in the assay with His-tagged SRPK1 [1], the binding result was “binds”.
With B2, the binding result in the assay with His-tagged SRPK1 [2] is reported as “binds”. Besides, the affinity in assay [3], expressed as Kd, was 16 ± 6 nM.
Consider B3, for which the “stoichiometry N” value in assay [4] was determined as 1.
